From patent publication US20060073572A1, “Cytokine structurally related to IL-17” (The Johns Hopkins University, priority 2001, published 2006)

Columns and labels:
IL-8 = IL-8 expression in NHBE cells (RT-PCR and ELISA); type: cell-based, human; conditions: 100 ng/ml
Excerpt: FIGS. 3A-3C. FIG. 3A, Expression of ML-1 protein in COS-7 cells. COS-7 cells were transfected with a gene construct containing full-length ML-1 sequence and a tag sequence encoding poly (His) peptide. ML-1-His fusion proteins were purified from supernatants of the transfected cells using a His affinity column, run on an 8-16% SDS-polyacrylamide gel under reducing conditions, and analyzed by Western Blot using anti-His monoclonal antibody. Lane 1 represents a mock-transfected sample. Lane 2 represents an ML-1-transfected sample. The location of a 19.5 kd marker is indicated. FIG. 3B, Effect of ML-1 on IL-8 gene expression. Human primary bronchial epithelial cells (NHBE cells) were treated with different stimuli. The cells were harvested 4 hours after stimulation, and total RNA was extracted and subjected to RT-PCR using IL-8 and G3PDH primers. Lane 1, medium only; lane 2, cells treated with rIL-17 (100 ng/ml); lane 3, cells treated with purified His-tagged protein (Positope, 100 ng/ml); lane 4, cells treated with ML-1 (100 ng/ml). FIG. 3C, Effect of ML-1 on IL-8 protein production. NHBE cells were treated with the same stimuli used in FIG. 3B, and the supernatants were harvested 48 hours after stimulation.
Primary human bronchial epithelial (NHBE) cells were purchased from Clonetics (San Diego, Calif.) and cultured according to the manufacturer's instructions. The cells were treated with IL-17 (100 ng/ml), ML-1 (100 ng/ml), or a control His-tagged protein (Positope, 100 ng/ml; Invitrogen, Carlsbad, Calif.). The affinity-purified control His protein was dissolved in the same buffer as ML-1. Total RNA was extracted using Rneasy (Qiagen, Chatsworth, Calif.) from 1×10^6 cells 4 hours after stimulation or exchange of media. The protocol for cDNA synthesis was that described above. For PCR, the sequences of PCR primers were based on the human IL-8 cDNA sequence. The sequences of PCR primers for IL-8 were: forward, 5′-TCTGCAGCTCTGTGTGAAG-3′ (SEQ ID NO:14) and reverse, 5′-TAATTTCTGTGTTGGCGCA-3′ (SEQ ID NO:15). The amplification reaction was performed for 23 cycles with denaturation at 94° C. for 45 seconds, annealing at 56° C. for 45 seconds, and extension at 72° C. for 45 seconds PCR products were detected by ethidium bromide staining. The expected size for IL-8 was 154 basepairs. IL-8 protein levels in the collected supernatants were determined with a commercially available ELISA kit (Biosource, Camarillo, Calif.) according to the manufacturer's instructions.

JNK = assay: Western blotting of JNK activation in ML-1-stimulated cells; type: cell-based, human; conditions: any time point, FIG. 6A (PBECs)
Description: FIGS. 6A-6D. Kinetic activation of ERK1/2 by ML-1 in PBECs (FIG. 6A) and HUVECs (FIG. 6B). The cells were incubated with or without ML-1 (100 ng/ml) for different time points as indicated. Western blotting analysis was performed by using antibodies against different MAP kinases as described in Example 8. FIGS. 6C and 6D. Effect of PD98059 on ML-1-induced phosphorylation of ERK1/2 in PBECs (FIG. 6C) and HUVECs (FIG. 6D). The cells were preincubated with PD98059 ([…]) or DMSO vehicle control for 1 hour, followed by stimulation of PBECs and HUVECs with medium or ML-1 for 20 minutes or 10 minutes, respectively. The results shown are representative of three separate experiments.
For analysis of activation of MAP kinases, PBECs were treated with IL-17 (100 ng/ml) for various time periods, with or without the MEK 1/2 inhibitor PD98059 ([…]; Calbiochem, La Jolla, Calif.) (15), the p38 inhibitor SB202190 (0.5-10 μM; ref. 16), or a vehicle control, DMSO (Me2SO) for 1 hour. […] Following the treatment, the cells were washed with ice-cold PBS. […]
Immunoreactive proteins were detected using antibodies against various kinases and phosphorylated kinases. […] Western blotting detection reagents (Amersham) and Hyper ECL luminescence detection film (Amersham) were used. […]

B1: ML-1: new member of the IL-17 cytokine family, SEQ ID NO:2; His-tagged recombinant protein expressed in COS-7 cells and affinity purified (protein, listed as Homo sapiens)
chain: MKLDIGIINENQRVSMSRNIESRSTSPWNYTVTWDPNRYPSEVVQAQCRNLGCINAQGKEDISMNSVPIQQETLVVRRKHQGCSVSFQLEKVLVTVGCTCVTPVIHHVQ
modifications: His tag
- IL-8 protein expression (IL-8; ELISA of supernatants, 48 hours): enhanced
- IL-8 transcript expression (IL-8; RT-PCR): enhanced
- activation of JNK kinase (JNK): No activation
